T1: human C4a (human, UniProt P0C0L4 680-756)
T1 construct: domain: C4a
T1 sequence (looked up): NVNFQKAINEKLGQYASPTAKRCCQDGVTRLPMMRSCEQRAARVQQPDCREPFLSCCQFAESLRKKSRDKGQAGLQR

T2: human C5a (human, UniProt P01031 678-751)
T2 construct: also called hC5a; free human C5a
T2 sequence: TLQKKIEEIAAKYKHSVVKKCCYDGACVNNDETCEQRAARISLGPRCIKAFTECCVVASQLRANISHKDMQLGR

T3: human C5a desarg (human, UniProt P01031 678-750)
T3 construct: also called desarginated C5a; hC5a desarg
T3 sequence: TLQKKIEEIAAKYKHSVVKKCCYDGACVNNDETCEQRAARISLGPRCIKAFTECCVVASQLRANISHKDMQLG

T4: cynomolgus macaque C5a (cynomolgus macaque)
T4 construct: also called recombinant cynomolgus macaque C5a; cynomolgus C5a
T4 chain: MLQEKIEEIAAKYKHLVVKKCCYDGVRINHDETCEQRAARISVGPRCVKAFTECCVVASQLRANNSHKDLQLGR

T5: mouse C5a (mouse, UniProt P06684 683-755)
T5 construct: also called recombinant mouse C5a
T5 sequence: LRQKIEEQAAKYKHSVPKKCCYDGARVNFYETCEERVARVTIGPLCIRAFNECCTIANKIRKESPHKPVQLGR


Key:
human C3a = biological target: T6, human C3a (human, UniProt P01024 672-748); assay: Biolayer interferometry (Octet); biotinylated antigen on streptavidin tip, IgG in solution
T6 construct: domain: C3a
Method: (§1) These antibodies were evaluated for specificity using Biolayer Interferometry on an Octet (ForteBio Inc.).

human C4a = biological target: T1, human C4a; assay: as above
Method: as §1

human C5a [1] = biological target: T2, human C5a; assay: Biolayer interferometry (Octet); biotinylated antigen on streptavidin tip, 20 nM IgG in solution
Method: as §1

human C5a desarg = biological target: T3, human C5a desarg; assay: as above
Method: as §1

cynomolgus macaque C5a = biological target: T4, cynomolgus macaque C5a; assay: SPR (Biacore); antibody captured by anti-human Fc on CM5 chip, recombinant cynomolgus C5a 0.6-5.9 nM as analyte; 1:1 Langmuir fit
Method: The surface was regenerated with 20 mM HCl, 0.02% surfactant P20 (Biacore) after each cycle to remove bound antibody and antigen. The data was evaluated using Biacore BlAevaluation software using a 1:1 Langmuir Model Fit (Rmax:Global Fit; R1:Local Fit). These experiments were for screening purposes with a minimal number of analyte concentrations (3 to 4) with 1 duplicate.

mouse C5a = biological target: T5, mouse C5a; assay: SPR (Biacore); antibody captured by anti-human Fc on CM5 chip, recombinant mouse C5a 0.6-5.9 nM as analyte; 1:1 Langmuir fit; footnote: only an approximation of the KD
Method: The surface was regenerated with 20 mM HCl, 0.02% P20 after each cycle to remove bound antibody and antigen. The data were evaluated using Biacore BlAevaluation software using a 1:1 Langmuir Model Fit (Rmax:Global Fit; R1:Local Fit).

human C5a [2] = biological target: T2, human C5a; assay: Biolayer interferometry (Octet)
human full-length C5 = biological target: T7, human full-length C5 (human, UniProt P01031 19-673; P01031 678-1676); assay: Biolayer interferometry (Octet); biotinylated antigen on streptavidin tip, IgG in solution
T7 construct: mature; also called uncleaved human C5; native, fully-folded human C5
T7 sequence (P01031 19-673 limits assumed, one chain of several): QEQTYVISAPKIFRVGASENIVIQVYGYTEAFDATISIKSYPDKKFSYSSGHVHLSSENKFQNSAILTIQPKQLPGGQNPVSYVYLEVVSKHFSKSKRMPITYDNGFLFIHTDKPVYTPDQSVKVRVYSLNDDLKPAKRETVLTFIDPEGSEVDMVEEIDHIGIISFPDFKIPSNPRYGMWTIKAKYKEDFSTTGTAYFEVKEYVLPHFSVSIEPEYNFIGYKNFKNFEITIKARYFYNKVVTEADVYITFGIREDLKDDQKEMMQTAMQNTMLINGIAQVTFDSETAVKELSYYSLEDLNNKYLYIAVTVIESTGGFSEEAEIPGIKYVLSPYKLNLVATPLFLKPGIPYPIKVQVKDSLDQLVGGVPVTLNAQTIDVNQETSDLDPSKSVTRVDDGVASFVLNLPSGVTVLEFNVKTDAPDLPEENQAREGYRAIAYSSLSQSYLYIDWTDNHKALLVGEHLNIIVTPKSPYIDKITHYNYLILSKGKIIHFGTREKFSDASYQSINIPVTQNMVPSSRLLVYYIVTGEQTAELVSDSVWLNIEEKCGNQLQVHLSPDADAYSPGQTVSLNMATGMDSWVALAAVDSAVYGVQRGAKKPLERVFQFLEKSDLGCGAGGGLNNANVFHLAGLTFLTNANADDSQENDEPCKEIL
Method: as §1

T6 sequence (P01024 672-748 limits assumed): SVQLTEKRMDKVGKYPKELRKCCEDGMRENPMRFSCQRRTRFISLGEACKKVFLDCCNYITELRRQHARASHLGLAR

Row | Binder | binding result (human C3a) | binding result (human C4a) | binding result (human C5a [1]) | binding result (human C5a desarg) | Kd (cynomolgus macaque C5a) | Kd (mouse C5a) | binding result (human C5a [2]) | binding result (human full-length C5)
1 | 5an048ME (antibody, V domains shown, Full length mouse IgG2a) VH: EVRLQQSGPELVKPGASVRISCKASGYTFNDYYYMNWVKQSHGKSLEWIGYIFPKTGGTHYNQRFKGKATLTVDKSSSTAYMELRSLTSEDSAVYYCASGPFAYWGQGTLVTVSA VL: EIVLTQSPAIMSASPGEKVTMTCRASSSVSSSYLHWYQQKSGASPKLWIYSTSNLASGVPARFSGSGSGTSYSLTISSVEAEDAATYYCQQYSGYPLTFGGGTKLEIKR | no binding (tested: 20 nM) | no binding (tested: 20 nM) | binds | binds |  |  |  | 
2 | 5an179ME (antibody, V domains shown, Full length mouse IgG2a) VH: EVQLQQSGPELVKPGASVRMSCKASGYTFTSYLIHWVKQKPGQGLEWIGYIYPFNDGTKNNENFKGKATLTSDKSSSTVYMEVSSLTSEDSAVYYCARSHGPHYYGGSYGYHFDYWGQGTTLTVSS VL: DVVMTQTPLSLPVSLGDQASISCRSSQSLVHSNGNTYLHWYLQKPGQSPKLLIYKVSNRFSGVPDRFSGSGSGTDFTLKISRVEAEDLGVYFCSQSTHVPLTFGAGTKLELKR | no binding (tested: 20 nM) | no binding (tested: 20 nM) | binds | binds |  |  |  | 
3 | BNJ383 (antibody, human IgG2, kappa, V domains shown, Humanized bivalent full length IgG; also called anti-hC5a antibody) VH: QVQLVQSGAEVKKPGASVKVSCKASGYTFTDYSMDWVRQAPGQGLEWMGAIHLNTGYTNYNQKFKGRVTMTRDTSTSTVYMELSSLRSEDTAVYYCARGFYDGYSPMDYWGQGTTVTVSS VL: DIQMTQSPSSLSASVGDRVTITCRASESVDSYGNSFMHWYQQKPGKAPKLLIYRASNLESGVPSRFSGSGSGTDFTLTISSLQPEDFATYYCQQSNEDPYTFGGGTKVEIKR |  |  |  |  | 3.3 nM | ~0.379 nM |  | 
4 | 5an101ME (antibody, V domains shown, Full length mouse IgG2a) VH: EVQLQQSGPELVKPGSSVKISCKASGYTFTDYSMDWVKQSHGKSLEWIGAINPNSGGTNYSQKFKDKATLTVDKSSSTAYMELRSLTSEDSAVYYCASSGSYDGYYAMDYWGQGTSVTVSS VL: DIVMTQSPASLAVSLGQRATISCRASESVDSYGNSFMHWYQQKPGQPPKLLIYRASNLESGIPARFSGSGSRTDFTLTINPVEADDVATYYCQQSNEDPYTFGGGTKLEIKR | no binding (tested: 20 nM) | no binding (tested: 20 nM) |  | binds |  |  | binds | no binding (tested: 20 nM)
5 | 5an180ME (antibody, V domains shown, Full length mouse IgG2a) VH: EVQLQQPGAEIVRPGASVKLSCRASGYTFTDYWMNWVKQRPGQGLEWIGTIDPSDSYTIYNQKFKGKATLTVDTSSTTAYIQLSSLTSEDSAVYFCARGEDYDVSSYTMDYWGQGTSVTVSS VL: DIQMTQSPASLSASVGETVTITCRASENIYSYLAWYQQKQGKSPQLLVYNAKTLAEGVPSRFSGSGSGTQFSLKINSLQPEDFGSYYCQHHYGTPYTFGGGTKLEIKR | no binding (tested: 20 nM) | no binding (tested: 20 nM) |  | binds |  |  | binds | no binding (tested: 20 nM)
6 | 5an178ME (antibody, V domains shown, Full length mouse IgG2a) VH: EVKLVESGGGLVQPGGSRKLSCAASGFTFSDYGMVWVRQAPGKGLEWVAFISSGSSNIYYADTVKGRFTISRDNPKNTLFLQMNSLRSEDTAIYYCGRAFSFYYGYDYWGQGTTLTVSS VL: EIVLTQSPASLAVSLGQRATISCSASESVEYFGTSLMQWYQQKPGQPPKLLIYAASNVESGVPARFSGSGSGTDFSLNIHPVEEDDIAMYFCQQSRKVPWTFGGGTKLEIKR | no binding (tested: 20 nM) | no binding (tested: 20 nM) | binds | binds |  |  |  | 

— patent US20130224187A1 (Alexion, published 2013)
